Results reported in the supplement of paper PMC10065799, “High-throughput profiling of sequence recognition by tyrosine kinases and SH2 domains using bacterial peptide display” (eLife, 2023).

Test system: Fer (mouse)
Assay: phosphorylation enrichment, bacterial display (enrichment ratio); higher = better substrate or ligand; peptides without Tyr show the background
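Also: 11-residue human phosphosite peptides and single-mutation variants displayed on the E. coli surface, counted by deep sequencing, each peptide's frequency after selection divided by its frequency in the unselected input library; frequency after pTyr selection over input frequency; kinase dosed for 20-30% of maximal phosphorylation in three min.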

Q: With MANFVYKAGPS [MAML2_Y515_M514V_YF] as the sequence, how does the phosphorylation enrichment read?
A: The phosphorylation enrichment was 0.39.

Q: NSNAAYEQSHF [LRIF1_Y714] was tested. Which phosphorylation enrichment did it give?
A: The phosphorylation enrichment was 0.417.

Q: ELQDDYEDTME [SLC4A1_Y8_M11T] was tested. Which phosphorylation enrichment did it give?
A: The phosphorylation enrichment was 0.805.

Q: Which phosphorylation enrichment does the source give for GDPTEYFSTAI [IGSF22_Y501_YF] here?
A: The phosphorylation enrichment was 0.433.

Q: With QMQNPYSRHSS [MUC13_Y501] as the sequence, how does the phosphorylation enrichment read?
A: Its phosphorylation enrichment is 0.648.

Q: How did the phosphorylation enrichment turn out when RKMSSYAFFVQ [HMGB1_Y16_G11R] was run?
A: The phosphorylation enrichment was 0.899.

Q: How did the phosphorylation enrichment turn out when DEDEEYEFMNR [ERBB3_Y1197_YF] was run?
A: The phosphorylation enrichment was 0.487.

Q: For RRIHSYRCHLW [VHL_Y112_G114C], which phosphorylation enrichment is on record?
A: Its phosphorylation enrichment is 0.68.

Q: For FSQQTYYRVSN [ABCD1_Y180], which phosphorylation enrichment is on record?
A: The phosphorylation enrichment was 0.392.

Q: ANYTEYVATRW [CDKL5_Y171] was tested. Which phosphorylation enrichment did it give?
A: The phosphorylation enrichment was 0.601.

Q: For FVFSFYHAFSG [ACTN4_Y265_S262F_YF], which phosphorylation enrichment is on record?
A: The phosphorylation enrichment was 0.455.

Q: With FADIAYNFRDG [PAH_Y166_H170D_YF] as the sequence, how does the phosphorylation enrichment read?
A: The phosphorylation enrichment was 0.473.

Q: How did the phosphorylation enrichment turn out when SVTWTYSPALN [TP53_Y126_C124W] was run?
A: Its phosphorylation enrichment is 0.532.

Q: With AALSAYAPQRP [PTPRN2_Y249_A251P] as the sequence, how does the phosphorylation enrichment read?
A: The phosphorylation enrichment was 0.541.

Q: Which phosphorylation enrichment does the source give for TDLAYYLVCKG [ASL_Y376_R379C] here?
A: The phosphorylation enrichment was 0.581.

Q: CTTLHYNYMCN [TP53_Y234_I232L] was tested. Which phosphorylation enrichment did it give?
A: The phosphorylation enrichment was 1.41.

Q: LSSETYVKSYT [F5_Y2149_M2148T] was tested. Which phosphorylation enrichment did it give?
A: The phosphorylation enrichment was 0.738.

Q: Which phosphorylation enrichment does the source give for TNDMRYPMKSE [TGDS_Y302] here?
A: Its phosphorylation enrichment is 0.359.

Q: With ACQGKYTPSGQ [ALDOA_Y343] as the sequence, how does the phosphorylation enrichment read?
A: Its phosphorylation enrichment is 0.531.

Q: With TFQFKYPEGSS [TGM4_Y440_E437Q_YF] as the sequence, how does the phosphorylation enrichment read?
A: The phosphorylation enrichment was 0.363.

Q: With TVLGEYALPKG [CYP24A1_Y407] as the sequence, how does the phosphorylation enrichment read?
A: Its phosphorylation enrichment is 0.404.

Q: How did the phosphorylation enrichment turn out when WAMPAYNRSKL [WWOX_Y293_L291P] was run?
A: The phosphorylation enrichment was 0.281.

Q: For DHLASYLDKVR [KRT10_Y160_R156H], which phosphorylation enrichment is on record?
A: The phosphorylation enrichment was 0.363.

Q: With VKPRRYRPGTV [H3-5_Y41_H39R] as the sequence, how does the phosphorylation enrichment read?
A: Its phosphorylation enrichment is 0.463.

Q: How did the phosphorylation enrichment turn out when SIKDKYVMALF [KCNH2_Y611_T613M_YF] was run?
A: The phosphorylation enrichment was 0.385.

Q: Which phosphorylation enrichment does the source give for EKEKEYMLPLD [DNM2_Y563_K562E] here?
A: Its phosphorylation enrichment is 0.388.

Q: Which phosphorylation enrichment does the source give for HAVYVYDICHV [TWNK_Y508] here?
A: The phosphorylation enrichment was 6.45.

Q: For KRLKDYLTVLQ [USP25_Y425], which phosphorylation enrichment is on record?
A: Its phosphorylation enrichment is 0.431.

Q: RLLVVYTWTQR [HBB_Y36_P37T] was tested. Which phosphorylation enrichment did it give?
A: Its phosphorylation enrichment is 0.842.

Q: For IGEGTYGVLFK [CDK2_Y15_V18L_YF], which phosphorylation enrichment is on record?
A: The phosphorylation enrichment was 0.673.

Q: For EAIAKYDFKAT [GRB2_Y7], which phosphorylation enrichment is on record?
A: Its phosphorylation enrichment is 0.327.

Q: Which phosphorylation enrichment does the source give for TGHKGYVAFLE [CARD9_Y76] here?
A: The phosphorylation enrichment was 0.403.

Q: For NREGVYTVSAP [TGFBI_Y537_F540S], which phosphorylation enrichment is on record?
A: Its phosphorylation enrichment is 1.12.

Target: Jak2 (UniProt O60674)
Assay: as above

Jak2, sequence (O60674 whole entry, looked up): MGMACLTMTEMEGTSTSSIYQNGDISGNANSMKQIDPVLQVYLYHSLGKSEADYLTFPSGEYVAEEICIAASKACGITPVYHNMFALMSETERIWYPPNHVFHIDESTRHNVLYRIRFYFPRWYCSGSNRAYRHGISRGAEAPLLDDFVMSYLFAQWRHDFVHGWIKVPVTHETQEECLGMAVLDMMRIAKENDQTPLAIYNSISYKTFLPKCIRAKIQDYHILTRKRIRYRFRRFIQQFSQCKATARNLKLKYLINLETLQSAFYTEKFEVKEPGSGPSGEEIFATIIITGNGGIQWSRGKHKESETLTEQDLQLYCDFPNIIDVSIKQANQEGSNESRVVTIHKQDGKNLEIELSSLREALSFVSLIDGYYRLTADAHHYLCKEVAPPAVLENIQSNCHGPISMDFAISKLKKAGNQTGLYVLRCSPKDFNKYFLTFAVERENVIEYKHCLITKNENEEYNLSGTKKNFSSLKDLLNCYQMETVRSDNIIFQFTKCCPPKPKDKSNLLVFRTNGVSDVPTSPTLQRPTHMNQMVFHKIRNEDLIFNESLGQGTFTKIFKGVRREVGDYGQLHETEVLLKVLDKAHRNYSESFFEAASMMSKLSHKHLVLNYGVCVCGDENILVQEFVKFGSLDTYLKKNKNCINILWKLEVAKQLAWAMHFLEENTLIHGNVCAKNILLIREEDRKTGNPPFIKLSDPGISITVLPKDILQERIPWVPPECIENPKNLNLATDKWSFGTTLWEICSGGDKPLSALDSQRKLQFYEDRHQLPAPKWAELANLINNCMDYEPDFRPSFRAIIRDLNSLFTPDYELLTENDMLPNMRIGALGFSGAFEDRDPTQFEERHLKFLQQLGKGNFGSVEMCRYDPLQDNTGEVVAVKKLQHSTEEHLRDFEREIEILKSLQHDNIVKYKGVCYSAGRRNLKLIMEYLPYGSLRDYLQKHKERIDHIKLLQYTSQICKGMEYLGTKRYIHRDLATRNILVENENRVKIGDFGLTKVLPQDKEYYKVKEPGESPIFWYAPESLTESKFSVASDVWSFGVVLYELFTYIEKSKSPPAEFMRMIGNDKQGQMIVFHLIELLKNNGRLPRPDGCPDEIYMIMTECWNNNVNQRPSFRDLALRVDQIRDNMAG

Q: Which phosphorylation enrichment does the source give for MANFVYKAGPS [MAML2_Y515_M514V_YF] here?
A: The phosphorylation enrichment was 0.477.

Q: Which phosphorylation enrichment does the source give for NSNAAYEQSHF [LRIF1_Y714] here?
A: Its phosphorylation enrichment is 0.418.

Q: ELQDDYEDTME [SLC4A1_Y8_M11T] was tested. Which phosphorylation enrichment did it give?
A: The phosphorylation enrichment was 1.47.

Q: For GDPTEYFSTAI [IGSF22_Y501_YF], which phosphorylation enrichment is on record?
A: The phosphorylation enrichment was 1.15.

Q: How did the phosphorylation enrichment turn out when QMQNPYSRHSS [MUC13_Y501] was run?
A: Its phosphorylation enrichment is 0.468.

Q: How did the phosphorylation enrichment turn out when RKMSSYAFFVQ [HMGB1_Y16_G11R] was run?
A: Its phosphorylation enrichment is 0.755.

Q: DEDEEYEFMNR [ERBB3_Y1197_YF] was tested. Which phosphorylation enrichment did it give?
A: The phosphorylation enrichment was 0.965.

Q: Which phosphorylation enrichment does the source give for RRIHSYRCHLW [VHL_Y112_G114C] here?
A: Its phosphorylation enrichment is 0.762.

Q: How did the phosphorylation enrichment turn out when FSQQTYYRVSN [ABCD1_Y180] was run?
A: Its phosphorylation enrichment is 6.78.

Q: ANYTEYVATRW [CDKL5_Y171] was tested. Which phosphorylation enrichment did it give?
A: Its phosphorylation enrichment is 0.737.

Q: For FVFSFYHAFSG [ACTN4_Y265_S262F_YF], which phosphorylation enrichment is on record?
A: Its phosphorylation enrichment is 1.25.

Q: For FADIAYNFRDG [PAH_Y166_H170D_YF], which phosphorylation enrichment is on record?
A: Its phosphorylation enrichment is 0.654.

Q: For SVTWTYSPALN [TP53_Y126_C124W], which phosphorylation enrichment is on record?
A: Its phosphorylation enrichment is 0.986.

Q: AALSAYAPQRP [PTPRN2_Y249_A251P] was tested. Which phosphorylation enrichment did it give?
A: The phosphorylation enrichment was 0.803.

Q: How did the phosphorylation enrichment turn out when TDLAYYLVCKG [ASL_Y376_R379C] was run?
A: The phosphorylation enrichment was 1.74.

Q: For CTTLHYNYMCN [TP53_Y234_I232L], which phosphorylation enrichment is on record?
A: The phosphorylation enrichment was 0.827.

Q: Which phosphorylation enrichment does the source give for LSSETYVKSYT [F5_Y2149_M2148T] here?
A: Its phosphorylation enrichment is 1.37.

Q: Which phosphorylation enrichment does the source give for TNDMRYPMKSE [TGDS_Y302] here?
A: Its phosphorylation enrichment is 0.579.

Q: Which phosphorylation enrichment does the source give for ACQGKYTPSGQ [ALDOA_Y343] here?
A: The phosphorylation enrichment was 0.851.

Q: TFQFKYPEGSS [TGM4_Y440_E437Q_YF] was tested. Which phosphorylation enrichment did it give?
A: The phosphorylation enrichment was 0.69.

Q: Which phosphorylation enrichment does the source give for TVLGEYALPKG [CYP24A1_Y407] here?
A: The phosphorylation enrichment was 0.592.

Q: Which phosphorylation enrichment does the source give for WAMPAYNRSKL [WWOX_Y293_L291P] here?
A: Its phosphorylation enrichment is 0.402.

Q: How did the phosphorylation enrichment turn out when DHLASYLDKVR [KRT10_Y160_R156H] was run?
A: The phosphorylation enrichment was 0.639.

Q: How did the phosphorylation enrichment turn out when VKPRRYRPGTV [H3-5_Y41_H39R] was run?
A: Its phosphorylation enrichment is 0.588.

Q: With SIKDKYVMALF [KCNH2_Y611_T613M_YF] as the sequence, how does the phosphorylation enrichment read?
A: The phosphorylation enrichment was 0.721.

Q: How did the phosphorylation enrichment turn out when EKEKEYMLPLD [DNM2_Y563_K562E] was run?
A: The phosphorylation enrichment was 0.743.

Q: For HAVYVYDICHV [TWNK_Y508], which phosphorylation enrichment is on record?
A: The phosphorylation enrichment was 1.01.

Q: With KRLKDYLTVLQ [USP25_Y425] as the sequence, how does the phosphorylation enrichment read?
A: The phosphorylation enrichment was 0.625.

Q: How did the phosphorylation enrichment turn out when RLLVVYTWTQR [HBB_Y36_P37T] was run?
A: Its phosphorylation enrichment is 1.08.

Q: Which phosphorylation enrichment does the source give for IGEGTYGVLFK [CDK2_Y15_V18L_YF] here?
A: Its phosphorylation enrichment is 0.702.

Q: EAIAKYDFKAT [GRB2_Y7] was tested. Which phosphorylation enrichment did it give?
A: The phosphorylation enrichment was 0.597.

Q: For TGHKGYVAFLE [CARD9_Y76], which phosphorylation enrichment is on record?
A: The phosphorylation enrichment was 0.635.

Q: For NREGVYTVSAP [TGFBI_Y537_F540S], which phosphorylation enrichment is on record?
A: The phosphorylation enrichment was 0.719.
